Assays:
[1] = target: GST-TSC2 fragment 2 (amino acids 1357-1765) (UniProt P49816)
[2] = target: GST-TSC2 fragment 1 (amino acids 910-1112) (UniProt P49816)
[3] = target: TSC2 fragment containing S1345 (UniProt P49816)
[4] = target: purified TSC2-F2 fragment (AMPK assay, contains T1227) (UniProt P49816)

Substance	in vitro phosphorylation by purified kinase [1]	in vitro phosphorylation by purified kinase [2]	in vitro phosphorylation by immunoprecipitated kinase [3]	in vitro phosphorylation by immunoprecipitated kinase [4]
GST-Akt (wild type)	Wild-type Akt, but not the kinase-inactive Akt-KM mutant, efficiently phosphorylated both fragment 1 and fragment 2 of TSC2 in vitro	Wild-type Akt, but not the kinase-inactive Akt-KM mutant, efficiently phosphorylated both fragment 1 and fragment 2 of TSC2 in vitro	–	–
immunoprecipitated AMPK (in vitro kinase assay)	–	–	The TSC2 fragment was phosphorylated by immunoprecipitated AMPK, but not the kinase inactive AMPK mutant	In vitro phosphorylation of the purified TSC2-F2 fragment by immunoprecipitated AMPK showed that AMPK specifically phosphorylates TSC2 on T1227

Reference: patent US20080199896
